This note sets out measurements from patent US20250228955A1.

This experiment deals with recombinant HIV-1 trimeric spike (BG505 SOSIP.664) (HIV-1).

The term Kd denotes the constant that tells how readily two partners part at equilibrium.

B1: ODIN-1 (VHH-72.18 with UL-CDR3 from NC-Cow1 bovine IgG in FR2 loop) (bispecific antibody, V domains shown)
VH: MGWFRQTNKKECPEDYTYNPRCPQQYGWSDCDCMGDRFGGYCRQDGCSNYIHRSTREFVATISWSGGSTYYTDSVKGRFTISRDNAKNTVYLQMNSLKPDDTAVYYCAAAGLGTVVSEWDYDYDYWGQGTQVTVSS
With B1, the dissociation constant (Kd) was 30 nM.
